In a protein production outcome set (Wang et al. 2014):

Test: label from the status in PepcDB records

Sequence | protein production
MTTASGPGDLPAGSPVSSLHEALDQCMTALDLFLTNQFSEALSYLKPRTKESMYHSLTYATILEMQAMMTFDPQDILLAGNMMKEAQSLCQRHRRKSSMTDSFSNLVHRPTIDQFTEEEIHAEVCYAECLLQRAALTFLQDENMVSFIKGGIKVRNSYQTYKELDSLVQSSQYSKGESHRHFEGGVKLGVGAFNLTLSMLPTRILRLLEFVGFSGNKDYGLLQLEEGATGHSFRAVLCVMLLLCYHTFLTFVLGTGNVNIEEAEKLLKPYLNRYPKGAIFLFFAGRIEAIKGNIDAAVRRFEECCEAQQHWKQFHHMCYWELMWCFTYKGQWKMAYFYADLLSKENSWSKATYIYMKAAYLSMFGKEDYKPFGDNEVELFRAVPGLKLKIAGKSLPTEKFAIRKSRRYLSPNPISLPIPALEMMYIWNGYAVIGKQPTLTDGMLEVITKAEEMLAMGPENEYSADDDCLVKLLKGLCLKYLGRIQEAEENFRSISANEKKIKYDHYLIPNALLELALLFMEQGRNEEAIKLLESAKQNYKNYSMESRTHLRIQAATLQARSSLEDGNRSLVSSVSL | failed
MQSVWFYMGKSFKIHCLTYIIFILQWLIFLSCKKHYKGEKVDRKAGVILFWHGKLALMPFAFRHYRQKNKKAYVMISHHKDGEQIAKIIKLFGLDTVRGSTSRGASSALRAAFKVLEQNDDIVITPDGPRGPYHSISDGSIILAQKKELKIRILNYEANRFWKFKSWDKMILPKPFSKITYSLSEPLDILSLDKEKAKEFLMKQFDKISLADQFKE | failed
MADLTHEFWDRLEDVRSGMLGIKGQGRLIPMSPQTDDDAPGAIWFITAKGTDLAKGVAAGPQPAQFVVSDDGEGLYADLDGTLERSTDREALDEFWSFVADAWFDGGQHDPDVCLLKFTPASGEISITEGGGARFLYEIAKAHLTDETPDMGEQATVTF | not failed
MTFANTASINHYWRTHPALFTAMLLVVVLITSYFIDVFSGSAIAVLLILQLAVVVVALQCSANYAYFVAVFGAVSFNFLFTAPRYSLQMLNVEDIVNLTVFLLAALTSSKLAKHYRRQQDALEQAQLRNSILLSVSHDLRTPLATIIGTLTTLKEYQPKLSPAQTEELIDSAAAESHRLHQYIENLLQANKLQHGALKFSLDEANIREVLQRTIARFQTEQPRIQIQSEPELPSLMICSSLIEQAIFNVLDNALHYSPATQPVTVSLYRHQHMLRIDIQDQGKGIAPSQTGAIFELFYRQHPTTDGGAGLGLPVAKGIITAHNGTISAEKVAHGSLIRIALPITKESA | failed
GSALIDEIRSLGESLQGYNVRHINSTIIGGGVAEILSSLVPLMEDVGLTVNWEVLAGTTEFFHTTKLFHNGMHGQPVNITGEMLENYLAIAQKNQNLLDGDADLVVIHDQQPLGLTAFRGRTRGRWLWYCHVDPRYAVPEVWYFLAPMVATCDAAVFHLP | failed
MQRLQHYYQCFLAQLKNFDGIPALLLRLYLAPVFIMAGFSKTQMLNEEVTGFSAIMADPNIIAWFGNSDWGLGLPFPALLANLVILVEFFGGWFLLFGALTRLISIPLMFTMIVAATSVHADNGWFAITPTNSDISPAKVAVWLGIDSAQASLDNSEQTATRLEKMRELIEENGNTDWLYENGNIVVLNNGIEFSTTYFIMLLSLFFIGAGRYTSVDHFVAKRFLIEEKRFS | failed
MTEQFVIIILLIALGYFLKRMNYLKATDSQVLSTLVLNVTLPSLVIVNLNSAKLDVSFSILPIMMIIYGIVAKIIVIWFFRKYDNHMRGSVGMMTGSMNIGLFAYPLVEAIWPSKGMIYFGMVDIGGAIIMFGITYFVGSYFSEGSDQFNFKFLGKKLVQSVPLVTYMIMFGLNMSHIHIWQPAIDFFSVLSKANMPLSMILLGVMLNFSIEREYLPVTIKYLCLHYGLGMLAGTLVHFLLPVSDDMIKTTLLITWLLPVGVAIIPYSIQFKYKTLPFVGMVTNLTIIISIIILYIYQAVFV | failed
MECDRNVEKMSQVILLFFIYSFIGWLWETVYCSLKAKKFVYRGFLVGPYCPIYGFGVLSVLYFVEPFENNLLVLYVGSAVLVTILEYVTSYGLEKLFHASWWDYHDVPFNLNGRVALPVSLFWGLGCVLIVKVIQPEIAKVVSFLQATFGNYLALCIVIVMGLDLIYTLLNMQGFKKLITEMGQTLETNQQEFKQRLNTKMEIATADWQKLKERTKKEHFQNRLNFQQRRFINNYPKLTLKNIKNSKEVRHLLEDLKKKGQ | failed
MEFNLRCSESMPDFSRVGMMDEDIPNVRGRGPSQPRGFLRSQIRAPCALMKGLSDIDQEITMAFIKALAVQHQKRSLERRKIRKKINRILRRVIAISRELHTLNSHPGDWIELGISEFDRIPDCMMPILELAGQGVQLFYKSRRVS | failed
MNQIAPRRFSGLRIVLLVLLAVLAFLLLMPTRVQPVAWNPAPAPSLSQGPFAENQKLKAVQPVGARDIDGPEALLLEHEQLLSGLHDGRVIQSSLDGSALKVLVNTGGRPLGLARHPDGRLIIADAIKGLLALDSQGQLQTLSTEANGLKFGFTDDVAVDAAGRYAYFSDATSRWGYGHDGEAVIEHGADGRLLRYDFQSGTTEVLLDRLEFANGIALGPDEAYVLVNETGAYRISRYWLKGDKAGSHDLFIDNLPGLPDNLSFNGAGRFWVALYAPRNPLLDATAPYPFVRKMLVRAMTVLPKPVEKRGFVLGLDTQGRVIANLQDGSSGNYSPITTVREYGDALYLGSLTARHMARLSLKEALAP | failed
MTHTHRPAALEVHHPQPLAVHPTVAPLVTVQPGPTPAVQSIVLPDGRVVTGYTLTPAPALAPVDARPAVSRTAVNVALGGVGFAAVCGGLVLLTTFIAALTTFISQLITLAAVIFGGWIAVQILGGTRHTGRGGTTINIRKAVIKRSHFHG | failed
MTTNTIMEQEARTAPQKIAEQLLANDAITESLGSVLREFKPKFVMIVGRGSSDHAGVFAKYLFEIEASIPTFAAAPSVASVYGKTLKLAGGLVIVISQSGRSPDILAQARMAKNAGAFCVALVNDETAPIKDIVDVVIPLRAGEEKAVAATKSYLATLSALLQVAAKWTQNESLVEAVNSLPQALQAAVDAEPQLRAGSLTDVKNLVVLGRGFGYAVSKEIALKLKEVCAIHAEAFSSAEFLHGPVTLVEKKLSILDVCIRDESYGSHVEQIANVKQRGANLIHLHQTSADIHPRIAPLALLQRFYIDVAAVAIALGINPDKPAGLKKVTQTL | not failed
MNLKDLLAHRENLMDSAKRARSAITDDMDPADAAQAVENVKSIISEIESTDEAIAARRGVSDVTQKLKGLTITERGTENDSAASRSLGEHFVKAAGDRLKNQAAGAHIEYSVPEYQVKEDAHSSPKDLVEGWGTFYQRGIINQRRERLVAADLMGAATVTASTVKYIVEKANRIASGAPATVAEGTKKPYVKYADFDVVTESLSKVAALAKFTDEMIEDYDFVASWINNNLVYDLSVVEEKQLINGDGRGSNIKGLLNREGIQTHKSAKQADWFNDLFKAKNKVSQATNLEADGIMINPVNYEALRLTKDGNGQYIAGGPFQGQYGNGNILIDPPLWGIKTVVSNAVPAGTAIVGAFRQGATVLRKGGVRVDSANTNADDFENNLVTLRAEERLGLMVPLPAAFVKVTLEETTEEL | not failed
MRCANCGNELKAGSLYCDVCGHPVQIVPDYNEFDDYLDNLVGNDDRRTDGQKTAKPVSDRTIRFDDPVREQLHSAGQWNGQKTDRMSQSVKQQVRQAQTGEQQSQTKQPCEKPQSDGQRAKRAQQKKIIIISAVVCAVAIVILIAAITRNVSRSHDNSFDYQVKQAKAAYSAGNINSAVSYYEKALSIDSDNTDVRFALADIYMSKKDYDAALVLYQEIINIDPKSKEAYKQLISIYESKKDYDAIVALRESAKDASVLKLFADYTVSKPQFSKSSGKYGETMELSIDADSDTKIYYSYDSDDPLTRGERYYSPITLDKEGTYEITAVAVDDRGIKSEVASAKYEIEFEAPDAPEIDPDGGTFGAQTDITITVPENCKVYYTWDSSDPSAASTEYTAPIPVPEGNNVLSVIAIDQNTGKCSDIYRSRFEFYMN | failed
MARYLVVAHRTAKSPELAAKLKELLAQDPEARFVLLVPAVPPPGWVYEENEVRRRAEEEAAAAKRALEAQGIPVEEAKAGDISPLLAIEEELLAHPGAYQAIVLSTLPPGPSRWLRLDVHTQAERFGLPVIHVIAQAA | not failed
MKTFNESNGTNANVLMVGLTLVQAAAAKGAVCLDGSVPGYHLCRGYGSGANNWIIQLQGGAWCDSIQNCQSRKGSGYGSSTLMEKELAFLGLLSNKAAENPDFYNWNKVKVRYCDGASFDGDSENKAAQLQYRGKRIFLAVMEDLMEKGMRQAKQALLSGCSSGGLSAILRCDDFNNLFPPTTTVKCMSDAGFFLDAVDVSGGHSLRRMYSGVVNTQGLQNTLPPTCTSHIKPFLCFFPQYIINQVKTPLFILNSGFDSWQIGNSLAPPSADKSGSWHNCSFSFRCTASQMHFLEGFKMSMLDALKTFSKFSKNGVLITSGWAHCQAERQDTWFPGYSGAGKAKGIAVAVGDWYFERTKQNSS | failed
MQEIIIQVMNQFGYFGVAFLIMIENIFPPIPSEVILTFGGFMTTYSELGIIGMIIAATIGSVLGALILYFVGRLLSVERLEKLVSGRLGKVLRLKPEDITKAEKWFLKRGYATIFFCRFIPLIRSLISIPAGSAKMKLPSFLILTTLGTLIWNIVLVCLGAALGDNWEMIAGILDSYSSVVVVILGIIFILAILIFVKKRFFPKNKNYSSDTEK | not failed
MEKHKIALISDWYFPKVGGIEYSIHALAKTLNQRGHKVHVITRCYPNIPEYNIRDGVAIIRIKSSPFPGQQRFLMPGAYKELYRLLKEGNYDIINSHGLDSPLGMIALIAARKLGIPSVVTNHSLVGHTPLRLYLYLAGKLLVGNADAVIAVSSAVEKDTKLMTKKPVYRIFNGMEYEESNPIAPLPFDRKGKLVIITVARMTKKKGVQNLIGLAPSFLKKYENLIFLMIGDGPLLKNLEKKVEESGLSENFYFTGEVPRKAVLEYLEQADIFALPSSDEAFGISILEAISKNVPVVAMNHSGISDIITHGVNGYLADNLSEFASCLQDLIEKPALRAEFARKAGEGLSNYDWNKIYEQTCRVYREVIYEKHHHNS | failed
SVATQHLFARQKNTQLTLHVAHSFCSQWLMPRLADFHRQHPDVVVKISTTANTVPNASAIADVEIINGYGDWQSEQAVQLTQEN | failed
MGHHHHHHSHMGWDLTVKMLAGNEFQVSLSSSMSVSELKAQITQKIGVHAFQQRLAVHPSGVALQDRVPLASQGLGPGSTVLLVVDKSDEPLS | failed
EGYEQDFAVLTAEITSKIARVPRLPPDEKKQMVANVEKQLEEARELLEQMDLEVREIPPQSRGMYSNRMRSYKQEMGKLETDFKRSRIA | not failed
MVYVAVLANIAGNFPALTAALEKIEELKEEGYEIEKYYILGNIVGLFPYPREVIEAIKNLAKTSNVKVIRGKYDQLIAMSDPHAGDPKYIDKLEIPDHLKATLKYTWEKLGHEGREYLRDLPIYLVDKIGKNEIFGVYGSPVNPFDGEILPDQPTSYYEAIMRPVKEYEMLLVASPRYPLDAMTMYGRVVCPGSIGFPPAREHKATFALVDAETLKVKFIEVEYDKKIIEDRIKLEKLPEEVIKILYHGGKA | not failed
MQAYIDRIGDFIQANQDWAGPITFLLTFGESMVLVGLLIPATALMLLTGGLIGAGTLSPWGVLAWGIAGAIAGDAVSYALGRWLGPGVMRRWPLNTQRSAVARARLFFYRYGFASVLIGRFLGPIRSTIPTVAGIMGMHHLRFQLANVLSAVAWLPLMLAPGYITARGLGAMDNAQHIGLAAGMGASVLIGCWLLVAVMRKRRQPARANRRP | not failed
MTIAAAPPSSRFRAVRIWLTLVAALIAVMVLVGGATRLTESGLSIVEWKPVTGSLPPLTDTQWHAAFDGYKQIPQYRELNAGMTLDQFKTIFWWEWSHRLLGRVIGIVYLLPFLWFLWRGAIGPEWKRALWIIFALGALQGAVGWWMVASGLSQRTEVSQVRLATHLSLALIIYAAIVWTLRRMADGARVAAPVRLRVTALALLGLTFVQLYAGALVAGLRAGRLYNTWPEIDGALIPDAARLWFESPWWKNLFDNHLTVQFDHRMLAYALWTLAALHMIDALRTRAAARGAVQLFLALTAQATLGIFTVLYAAPIDLALVHQAMALVVLTLAVLQAERLTATRKDRTARDRGAAGRLAIPSEPFPSA | failed
